From paper PMC5532214, “Natural variations in the biofilm-associated protein BslA from the genus Bacillus” (Scientific Reports, 2017)

How the values were obtained:
Test in all cases: SEC; purified, untagged mature regions of the proteins analysed by size exclusion chromatography; SDS-PAGE with and without β-mercaptoethanol was run alongside
[1] = target: Bacillus pumilus BslA(37-177) (Bacillus pumilus SAFR-032)
[2] = target: Bacillus licheniformis BslA(40-179) (Bacillus licheniformis DSM13)
[3] = target: Bacillus amyloliquefaciens BslA(42-181) (Bacillus amyloliquefaciens FZB42)
[4] = target: the molecule itself

Molecule: Bacillus pumilus BslA(37-177) (domain or fragment)
- stoichiometry N [1]: 2

Molecule: Bacillus licheniformis BslA(40-179) (domain or fragment)
- stoichiometry N [2]: 2

Molecule: Bacillus amyloliquefaciens BslA(42-181) (domain or fragment)
- stoichiometry N [3]: 2

B1: Bacillus subtilis BslA(42-181) (domain or fragment, B. subtilis, UniProt P71014 42-181, looked up)
chain: MRTQSTASLFATITGASKTEWSFSDIELTYRPNTLLSLGVMEFTLPSGFTANTKDTLNGNALRTTQILNNGKTVRVPLALDLLGAGEFKLKLNNKTLPAAGTYTFRAENKSLSIGNKFYAEASIDVAKRSTPPTQPCGCN
notes: BslA of Bacillus subtilis, truncated protein BslA 42-181 (mature region), on which the previous analyses were based; also called Bs-BslA; source: E. coli BL21 (DE3) pLysS, purified (Glutathione Sepharose, TEV cleavage, SEC)
- stoichiometry N [4]: 2
